# Laboratory results taken from patent US20230270877A1 (Seagen, published 2023).
# B1: SEA-CD40 (nonfucosylated hS2C6) (antibody, human IgG1, kappa)
# heavy: not shown
# light: DIQMTQSPSSLSASVGDRVTITCRSSQSLVHSNGNTFLHWYQQKPGKAPKLLIYTVSNRFSGVPSRFSGSGSGTDFTLTISSLQPEDFATYFCSQTTHVPWTFGQGTKVEIKRTVAAPSVFIFPPSDEQLKSGTASVVCLLNNFYPREAKVQWKVDNALQSGNSQESVTEQDSKDSTYSLSSTLTLSKADYEKHKVYACEVTHQGLSSPVTKSFNRGEC
# notes: also called nonfucosylated humanized S2C6
# Biological target: T1, human FcγRIIIa (human, UniProt P08637 17-254)
# T1 construct: whole, on cells
# Assay: flow cytometry on CHO cells transfected with human FcγRIIIa, PE anti-human IgG Fc secondary, GEO mean fluorescence
# T1 sequence (P08637 17-254): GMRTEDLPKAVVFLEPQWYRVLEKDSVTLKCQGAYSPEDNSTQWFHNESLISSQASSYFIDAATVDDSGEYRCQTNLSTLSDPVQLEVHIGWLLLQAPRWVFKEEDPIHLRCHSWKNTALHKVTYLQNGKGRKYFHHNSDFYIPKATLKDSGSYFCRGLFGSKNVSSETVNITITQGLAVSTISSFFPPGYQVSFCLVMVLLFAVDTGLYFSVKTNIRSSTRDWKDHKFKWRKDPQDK
binder,measurement,value
B1,EC50 (read off the curve),~1 µg/mL
